According to US20250051458A1, “Methods for Treating Neurodegeneration Targeting IGF1/IGF1R” (The Schepens Eye Research Institute, Inc., priority 2021, published 2025):

Experiments:
[1] = test system: microglial cultures isolated from the retina and brain or the BV2 cells; assay: COX2 immunostaining in LPS-treated microglial cultures (retina, brain, BV2 cells); type: cell-based, mouse; details: IGFBPL1 added 6 hr after LPS
Experimental: For primary retinal microglia isolation, microglia cells were isolated from mice retina using magnetic CD11b microbead (BD, 558013). The purification protocol was following manufacture's instructions. Briefly, the papain dissociated retinal cells were resuspended into diluted BD IMag™ Buffer (BD, Cat. No. 552362). After 6-8 mins washing at 300 g, 50 ul of magnetic CD11b microbeads were added for every 10^7 total cells and then incubated for 30 mins at 6-12° C. Then bring the BD IMag-particle labeling volume up to 1-8×10^7 cells/ml with 1×BD IMag™ buffer, and immediately place the tube on the Cell Separation Magnet (BD, Cat. No. 552311). Carefully aspirate off the supernatant after 6-8 minutes incubation at room temperature, and then repeat two times washing. The positive fractions left in the tube were then collected for culture. Around 3000 cells per well were seeded in 8-well Nunc® Lab-Tek™ II Chamber Slide™ (Thermo Scientific, Cat. No. 154534PK). The isolated microglial cells were cultured at 37° C. with 5% C02 in DMEM with 10% FBS and 50 ng/ml rmCSF1 (PeproTech, Cat. No. 315-02).
For primary mouse brain microglia isolation, we optimized our protocol based previously reported protocol^2. First step was to collect brain after perfusing mice with saline. […]

[2] = test system: Igf-1r conditional knock out on microglia mice; assay: Microbead-induced glaucoma in mice with Igf-1r specific knock out on microglia; type: in vivo, mouse
Experimental: Adult (10-12 weeks old) male and female C57BL/6J (B6) (The Jackson Laboratory, 000664), Cx3cr1^GFP (The Jackson Laboratory, 005582), DBA/2J mice (The Jackson Laboratory, 000671) Igf1r^(lax) inducible knockout mice (The Jackson Laboratory, 012251) as well as Cx3cr1^tm2.1(cre/ERT2) mice were obtained from the Jackson Laboratory. Igf1r^(lax) mice were crossed with Cx3cr1^tm2.1(cre/ERT2) mice to generated Igf-1r specific knock out on microglia after 3 consecutive days injection of 100 mg/kg tamoxifen to mice. IGFBPL1 deficiency mice at a C57BL/6J genetic background (Knockout Mouse Project Repository, University of California at Davis) were used in following experiments. Mice of both genders were randomized into control and experimental groups. All experimental procedures and use of animals were approved and monitored by the Institute's Animal Care Committee and conform to the standards of the National Institute of Health and the Association for Research in Vision and Ophthalmology.
Elevated IOP was induced unilaterally in adult mice (10-12 weeks old) as described previously^21. […] Antibiotic ointment will be applied topically on the cornea after the injection, and then leave the operated mice to recover on a warm pad and monitored every 15 minutes until awake and fully sternal. […]

B1: IGFBPL1: insulin-like growth factor binding protein like protein 1; recombinant protein (R&D system, 4130-BL) (protein)
chain: LGLRDAGRRHPECSPCQQDRCPAPSPCPAPWISARDECGCCARCLGAEGASCGGPVGSRCGPGLVCASRASGTAPEGTGLCVCAQRGAVCGSDGRSYSSICALRLRARHAPRAHHGHLHKARDGPCEFAPVVLMPPRDIHNVTGTQVFLSCEVKAVPTPVITWKKVKHSPEGTEGLEELPGDHVNIAVQVRGGPSDHETTSWILINPLRKEDEGVYHCHAANAIGEAQSHGTVTVLDLNRYKSLYSSVPGDLL
For B1, the “LPS-induced COX2 upregulation” value [1] was “suppressed”, the “pSTR amplitude and RGCs (neuroprotective effect)” value ([2]; IGFBPL1 at day 3, 10 and 17 post microbeads-induced glaucoma, IGF-1R knocked out on microglia) was “neuroprotective effects diminished” and the “Contrast sensitivity (CS) and visual acuity (VA)” value ([2]; Igf-1r−/− mice with MB induced glaucoma) was “very limited protective capacity”.
